Results reported in the supplement of paper PMC9112550, “Optimization of the antimicrobial peptide Bac7 by deep mutational scanning” (BMC Biology, 2022).

Each sequence was assayed on Escherichia coli TOP10 (assay: shrunken log2 fold change of peptide-encoding DNA abundance (4.5 h post-induction vs induction); higher = less antimicrobial activity (less host growth inhibition)). Conditions: time post-induction: 4.5 h; library: site-saturation at positions 5, 18, 19, 20.
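Note: peptides expressed intracellularly from a pBAD plasmid library in pooled LB shake-flask culture, induced with 0.3% L-arabinose, DNA abundance read by NGS, three biological replicates, DESeq2 with apeglm shrinkage.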

Question: How did the “shrunken log2 fold change” value turn out when RRIRRRPPRLPRPRPRPEIGPRP was run?
Answer: 0.244

Question: Which “shrunken log2 fold change” value does the source give for RRIRYRPPRLPRPRPRPKYMPRP here?
Answer: -0.998

Question: For RRIRKRPPRLPRPRPRPMMIPRP, which “shrunken log2 fold change” value is on record?
Answer: -0.0134

Question: How did the “shrunken log2 fold change” value turn out when RRIRHRPPRLPRPRPRPWELPRP was run?
Answer: -0.0835

Question: With RRIRSRPPRLPRPRPRPHYHPRP as the sequence, how does the “shrunken log2 fold change” value read?
Answer: -0.696

Question: RRIRLRPPRLPRPRPRPKFYPRP was tested. Which “shrunken log2 fold change” value did it give?
Answer: -0.369

Question: Which “shrunken log2 fold change” value does the source give for RRIRWRPPRLPRPRPRPRMGPRP here?
Answer: 0.357

Question: For RRIRYRPPRLPRPRPRPTPVPRP, which “shrunken log2 fold change” value is on record?
Answer: -0.0457

Question: Which “shrunken log2 fold change” value does the source give for RRIRTRPPRLPRPRPRPIWWPRP here?
Answer: 0.261

Question: How did the “shrunken log2 fold change” value turn out when RRIRQRPPRLPRPRPRPRFLPRP was run?
Answer: -0.0439

Question: Which “shrunken log2 fold change” value does the source give for RRIRGRPPRLPRPRPRPWSYPRP here?
Answer: -0.157

Question: For RRIRYRPPRLPRPRPRPHSFPRP, which “shrunken log2 fold change” value is on record?
Answer: -0.00356

Question: RRIRWRPPRLPRPRPRPFATPRP was tested. Which “shrunken log2 fold change” value did it give?
Answer: 0.834

Question: For RRIRHRPPRLPRPRPRPMASPRP, which “shrunken log2 fold change” value is on record?
Answer: -0.0864

Question: With RRIRGRPPRLPRPRPRPFRCPRP as the sequence, how does the “shrunken log2 fold change” value read?
Answer: 0.0939

Question: How did the “shrunken log2 fold change” value turn out when RRIRPRPPRLPRPRPRPTAWPRP was run?
Answer: 0.666

Question: For RRIRMRPPRLPRPRPRPFRQPRP, which “shrunken log2 fold change” value is on record?
Answer: 0.0135

Question: Which “shrunken log2 fold change” value does the source give for RRIRFRPPRLPRPRPRPAGNPRP here?
Answer: 0.135

Question: RRIRSRPPRLPRPRPRPTKYPRP was tested. Which “shrunken log2 fold change” value did it give?
Answer: -0.52

Question: With RRIRTRPPRLPRPRPRPHCEPRP as the sequence, how does the “shrunken log2 fold change” value read?
Answer: 0.023

Question: With RRIRTRPPRLPRPRPRPKTDPRP as the sequence, how does the “shrunken log2 fold change” value read?
Answer: -0.158

Question: Which “shrunken log2 fold change” value does the source give for RRIRKRPPRLPRPRPRPLDMPRP here?
Answer: 0.0395

Question: With RRIRFRPPRLPRPRPRPLDKPRP as the sequence, how does the “shrunken log2 fold change” value read?
Answer: -0.103

Question: With RRIRWRPPRLPRPRPRPFGTPRP as the sequence, how does the “shrunken log2 fold change” value read?
Answer: 0.00184

Question: How did the “shrunken log2 fold change” value turn out when RRIRMRPPRLPRPRPRPNVKPRP was run?
Answer: -0.0702

Question: How did the “shrunken log2 fold change” value turn out when RRIRNRPPRLPRPRPRPHNYPRP was run?
Answer: -0.968

Question: RRIRMRPPRLPRPRPRPTVIPRP was tested. Which “shrunken log2 fold change” value did it give?
Answer: -0.271

Question: How did the “shrunken log2 fold change” value turn out when RRIRERPPRLPRPRPRPRMTPRP was run?
Answer: 0.0697

Question: RRIRFRPPRLPRPRPRPCQKPRP was tested. Which “shrunken log2 fold change” value did it give?
Answer: 0.033

Question: For RRIRSRPPRLPRPRPRPMRGPRP, which “shrunken log2 fold change” value is on record?
Answer: 0.944

Question: How did the “shrunken log2 fold change” value turn out when RRIRWRPPRLPRPRPRPGLQPRP was run?
Answer: 0.0651

Question: RRIRKRPPRLPRPRPRPQIRPRP was tested. Which “shrunken log2 fold change” value did it give?
Answer: -0.0406

Question: How did the “shrunken log2 fold change” value turn out when RRIRERPPRLPRPRPRPRQQPRP was run?
Answer: 0.357

Question: For RRIRFRPPRLPRPRPRPESPPRP, which “shrunken log2 fold change” value is on record?
Answer: 0.00789

Question: RRIRHRPPRLPRPRPRPYFAPRP was tested. Which “shrunken log2 fold change” value did it give?
Answer: 0.52

Question: RRIRDRPPRLPRPRPRPTAMPRP was tested. Which “shrunken log2 fold change” value did it give?
Answer: 0.858

Question: How did the “shrunken log2 fold change” value turn out when RRIRDRPPRLPRPRPRPTRQPRP was run?
Answer: 0.228

Question: How did the “shrunken log2 fold change” value turn out when RRIRARPPRLPRPRPRPYVFPRP was run?
Answer: -0.245

Question: With RRIRQRPPRLPRPRPRPENTPRP as the sequence, how does the “shrunken log2 fold change” value read?
Answer: -0.387

Question: Which “shrunken log2 fold change” value does the source give for RRIRSRPPRLPRPRPRPHKYPRP here?
Answer: -0.377

Question: Which “shrunken log2 fold change” value does the source give for RRIRMRPPRLPRPRPRPVIQPRP here?
Answer: 0.257

Question: RRIRKRPPRLPRPRPRPFKQPRP was tested. Which “shrunken log2 fold change” value did it give?
Answer: 0.0339

Question: How did the “shrunken log2 fold change” value turn out when RRIRQRPPRLPRPRPRPDIKPRP was run?
Answer: -0.0227

Question: RRIRWRPPRLPRPRPRPEDKPRP was tested. Which “shrunken log2 fold change” value did it give?
Answer: -0.028

Question: Which “shrunken log2 fold change” value does the source give for RRIRFRPPRLPRPRPRPLIYPRP here?
Answer: -0.898

Question: For RRIRARPPRLPRPRPRPAAQPRP, which “shrunken log2 fold change” value is on record?
Answer: 0.916

Question: Which “shrunken log2 fold change” value does the source give for RRIRQRPPRLPRPRPRPWVIPRP here?
Answer: -0.134

Question: With RRIRSRPPRLPRPRPRPGIIPRP as the sequence, how does the “shrunken log2 fold change” value read?
Answer: -0.454

Question: With RRIRARPPRLPRPRPRPKTGPRP as the sequence, how does the “shrunken log2 fold change” value read?
Answer: 0.427

Question: For RRIRYRPPRLPRPRPRPQEEPRP, which “shrunken log2 fold change” value is on record?
Answer: -0.0969

Question: With RRIRDRPPRLPRPRPRPLYNPRP as the sequence, how does the “shrunken log2 fold change” value read?
Answer: -0.321

Question: With RRIRERPPRLPRPRPRPEMRPRP as the sequence, how does the “shrunken log2 fold change” value read?
Answer: 0.151

Question: How did the “shrunken log2 fold change” value turn out when RRIRRRPPRLPRPRPRPMQTPRP was run?
Answer: -0.00191

Question: How did the “shrunken log2 fold change” value turn out when RRIRYRPPRLPRPRPRPFCNPRP was run?
Answer: -0.0455

Question: Which “shrunken log2 fold change” value does the source give for RRIRYRPPRLPRPRPRPYNEPRP here?
Answer: -1.3

Question: RRIRQRPPRLPRPRPRPEEFPRP was tested. Which “shrunken log2 fold change” value did it give?
Answer: -0.0679

Question: For RRIRGRPPRLPRPRPRPDQKPRP, which “shrunken log2 fold change” value is on record?
Answer: 0.0127

Question: Which “shrunken log2 fold change” value does the source give for RRIRARPPRLPRPRPRPTPHPRP here?
Answer: 0.598

Question: How did the “shrunken log2 fold change” value turn out when RRIRWRPPRLPRPRPRPIQHPRP was run?
Answer: 0.00853

Question: How did the “shrunken log2 fold change” value turn out when RRIRCRPPRLPRPRPRPNMDPRP was run?
Answer: -0.431

Question: RRIRSRPPRLPRPRPRPLHGPRP was tested. Which “shrunken log2 fold change” value did it give?
Answer: 0.0705

Question: For RRIRDRPPRLPRPRPRPHDYPRP, which “shrunken log2 fold change” value is on record?
Answer: -0.0787

Question: Which “shrunken log2 fold change” value does the source give for RRIRERPPRLPRPRPRPSMFPRP here?
Answer: -0.723

Question: RRIRIRPPRLPRPRPRPQVYPRP was tested. Which “shrunken log2 fold change” value did it give?
Answer: 0.0822

Question: With RRIRCRPPRLPRPRPRPMWMPRP as the sequence, how does the “shrunken log2 fold change” value read?
Answer: 0.174

Question: RRIRYRPPRLPRPRPRPIRPPRP was tested. Which “shrunken log2 fold change” value did it give?
Answer: -0.129

Question: How did the “shrunken log2 fold change” value turn out when RRIRFRPPRLPRPRPRPGCNPRP was run?
Answer: -0.292

Question: With RRIRIRPPRLPRPRPRPTACPRP as the sequence, how does the “shrunken log2 fold change” value read?
Answer: 0.0015

Question: With RRIRDRPPRLPRPRPRPFHRPRP as the sequence, how does the “shrunken log2 fold change” value read?
Answer: -0.261

Question: How did the “shrunken log2 fold change” value turn out when RRIRLRPPRLPRPRPRPAAEPRP was run?
Answer: 0.432

Question: Which “shrunken log2 fold change” value does the source give for RRIRGRPPRLPRPRPRPTYDPRP here?
Answer: 0.361

Question: Which “shrunken log2 fold change” value does the source give for RRIRDRPPRLPRPRPRPDGVPRP here?
Answer: -0.0199

Question: For RRIRCRPPRLPRPRPRPTEQPRP, which “shrunken log2 fold change” value is on record?
Answer: -0.304

Question: Which “shrunken log2 fold change” value does the source give for RRIRMRPPRLPRPRPRPPLQPRP here?
Answer: 0.661

Question: With RRIRVRPPRLPRPRPRPFTEPRP as the sequence, how does the “shrunken log2 fold change” value read?
Answer: -0.423
